Laboratory results taken from patent US20080166345A1, “MEDICAMENTS COMPRISING GENE RECOMBINANT ANTIBODY AGAINST GANGLIOSIDE GD3” (KYOWA HAKKO KOGYO CO., LTD., priority 2001, published 2008).

Key:
[1] = Reactivity of purified antibodies with GD3 (ELISA); type: binding; settings: antibody 10 μg/ml, 20 pmol/well; FIG. 22
Description: Each ganglioside (2 nmol) was dissolved in […] of ethanol solution containing 10 μg of dipalmitoylphosphatidylcholine (manufactured by SIGMA) and 5 μg of cholesterol (manufactured by SIGMA). In each well of a 96 well plate for ELISA (manufactured by Greiner), 20 μl of the solution (becomes 20 pmol/well) or 20 μl of the solution diluted with ethanol was respectively dispensed, followed by air-drying, and then PBS containing 1% BSA (hereinafter referred to as “1% BSA-PBS”) was added in 100 μl/well and allowed to react at room temperature for 1 hour to thereby block remaining active groups. After discarding 1% BSA-PBS, culture supernatants of transformants or diluted solutions of humanized antibodies were added in 50 μl/well and allowed to react at room temperature for 1 hour. […] After the reaction and subsequent washing with Tween-PBS, an ABTS substrate solution (a solution prepared by dissolving 0.55 g of 2,2′-azinobis(3-ethylbenzothiazoline-6-sulfonic acid) in 1 L of 0.1 M citrate buffer (pH 4.2) and adding 1 μl/ml hydrogen peroxide just before the use) was added in 50 μl/well for color development and the absorbance at 415 nm (hereinafter referred to as “OD415”) was measured.
Reactivity of purified anti-GD3 CDR-grafted antibodies KM8869, KM8870 and KM8871 with GD3 (manufactured by DIA-IATRON) was measured by the ELISA shown in the item 2 of Reference Example. […]

[2] = human peripheral blood monocyte as effector; cited from earlier work

B1: KM871: anti-GD3 human chimeric antibody; VH SEQ ID NO:49, VL SEQ ID NO:50, human IgG1 and κ C regions (antibody, listed as Mus musculus, V domains shown)
VH: EVTLVESGGDFVKPGGSLKVSCAASGFAFSHYAMSWVRQTPAKRLEWVAYISSGGSGTYYSDSVKGRFTISRDNAKNTLYLQMRSLRSEDSAMYFCTRVKLGTYYFDSWGQGTTLTVSS
VL: DIQMTQTASSLPASLGDRVTISCSASQDISNYLNWYQQKPDGTVKLLIFYSSNLHSGVPSRFSGGGSGTDYSLTISNLEPEDIATYFCHQYSKLPWTFGGGTKLEIKR
modifications: human IgG1 and kappa constant regions
For B1, the binding to ganglioside [1] is listed as “bound strongly” and the “ADCC activity in comparison with the original mouse-derived antibody” value [2] is listed as “increased”.
